Assay results reported in the supplement of paper PMC7125110.
± gives the standard error. Fewer inactive variants are shown than the library holds.

B1: glmS ribozyme (parent)
chain: AUAAAAGCGCCAGAACUACAGAAAUGUAGUUGACGAGGAGGAGGUUUAUCGAAUUUUCGGCGGAUGCCUCCAAA

Legend:
Conditions in all cases: with glucosamine-6-phosphate
[1] = variants of: B1; assay: self-cleavage kobs at 40 uM GlcN6P; higher = faster cleavage; RNA array
Procedure, shortened: (§1)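 Barcoded ribozyme variants were transcribed in situ on sequenced MiSeq chips by E. coli RNA polymerase. At 37 °C, a hybridised Cy3 probe tracked them while glucosamine-6-phosphate (40 μM to 10 mM) in HEPES/KCl/Mg(OAc)2 buffer flowed in and tiles were imaged over ~14 h. Per-tile medians of signals normalised to baseline and to non-cleaving reference variants were fit to one- or two-exponential decays, giving kobs. kcat and KM came from weighted Michaelis–Menten fits across concentrations.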

[2] = variants of: B1; assay: self-cleavage kobs at 640 uM GlcN6P; higher = faster cleavage; RNA array
Procedure, shortened: as §1

[3] = variants of: B1; assay: self-cleavage kobs at 2500 uM GlcN6P; higher = faster cleavage; RNA array
Procedure, shortened: as §1

[4] = variants of: B1; assay: self-cleavage kobs at 10000 uM GlcN6P; higher = faster cleavage; RNA array
Procedure, shortened: as §1

[5] = variants of: B1; assay: self-cleavage kobs at 160 uM GlcN6P; higher = faster cleavage; RNA array
Procedure, shortened: as §1

Variant	self-cleavage kobs at 40 uM GlcN6P [1] [s⁻¹]	self-cleavage kobs at 640 uM GlcN6P [2] [s⁻¹]	self-cleavage kobs at 2500 uM GlcN6P [3] [s⁻¹]	self-cleavage kobs at 10000 uM GlcN6P [4] [s⁻¹]	self-cleavage kobs at 160 uM GlcN6P [5] [s⁻¹]
U46A G51C	< 1e-05	< 1e-05	< 1e-05	< 1e-05	–
U31G A39G	0.0004 ± 6e-05	0.00522 ± 0.0013	0.0142 ± 0.0046	–	0.00122 ± 0.00027
A15G C71A	0.000251 ± 5.9e-05	0.00108 ± 0.00025	0.006 ± 0.0015	0.005 ± 0.0016	0.00102 ± 0.00025
G13U A33U G44C	< 1e-05	–	–	–	–
U55C G60U C68U	< 1e-05	–	< 1e-05	–	–
U56G G63U	< 1e-05	< 1e-05	–	< 1e-05	< 1e-05
A64U C68A	< 1e-05	< 1e-05	–	< 1e-05	–
G35C G44A	< 1e-05	–	–	< 1e-05	–
A12U G44U U57A G59A	< 1e-05	–	–	< 1e-05	–
C16A G29U U31C	3.38e-05 ± 1.4e-05	–	–	0.000493 ± 0.00013	–
C34A U45C	< 1e-05	< 1e-05	< 1e-05	< 1e-05	< 1e-05
A14U G41U G44U	< 1e-05	< 1e-05	–	< 1e-05	< 1e-05
G13C G44C	< 1e-05	< 1e-05	< 1e-05	< 1e-05	< 1e-05
C11A G35A U55A G60U U65A C68G	0.00461 ± 0.0018	–	–	5.33e-05 ± 1.7e-05	–
C11G A14U A39U	< 1e-05	–	–	–	–
C16U U30A U31G A53U G59U	< 1e-05	–	< 1e-05	–	–
C11U G29A G32U C50G	7.73e-05 ± 3.1e-05	–	–	7.84e-05 ± 2.3e-05	–
U47G A64C	< 1e-05	–	–	–	–
G40A C61U	< 1e-05	< 1e-05	–	–	< 1e-05
G44C U55G C70U	< 1e-05	< 1e-05	–	–	–
G9A G13A A14C C61A	< 1e-05	–	–	< 1e-05	–
A39U G44A C71A	< 1e-05	–	–	–	< 1e-05
G51C G63A	< 1e-05	–	< 1e-05	–	< 1e-05
U47G A48U A52C	< 1e-05	–	–	< 1e-05	–

Variant	self-cleavage kobs at 40 uM GlcN6P [1] [s⁻¹]	self-cleavage kobs at 640 uM GlcN6P [2] [s⁻¹]	self-cleavage kobs at 2500 uM GlcN6P [3] [s⁻¹]	self-cleavage kobs at 10000 uM GlcN6P [4] [s⁻¹]	self-cleavage kobs at 160 uM GlcN6P [5] [s⁻¹]
C11A A53U U57G C71A	0.000108 ± 2.7e-05	0.000248 ± 7.4e-05	0.000141 ± 6.7e-05	9.23e-05 ± 2.2e-05	–
G35U U65G	< 1e-05	< 1e-05	< 1e-05	< 1e-05	< 1e-05
A6U G35C C61U	< 1e-05	–	–	–	–
C10A G38A A53U C68A	< 1e-05	–	–	–	–
U56C G60U	< 1e-05	< 1e-05	< 1e-05	< 1e-05	< 1e-05
A33U G43U	< 1e-05	–	< 1e-05	< 1e-05	< 1e-05
G44C G51U	< 1e-05	–	< 1e-05	< 1e-05	–
U31A G44C	< 1e-05	–	–	6.05e-05 ± 1.8e-05	–
A39G U47C	0.000381 ± 6e-05	0.00353 ± 0.0012	0.00728 ± 0.0026	0.0217 ± 0.0054	–
A14C C61G	< 1e-05	–	–	< 1e-05	–
U31C A39G C50U U54G C58A G60C G62U	< 1e-05	–	–	< 1e-05	–
G26A A39U G40C	5.34e-05 ± 1.4e-05	0.000262 ± 8.2e-05	0.000935 ± 0.00028	–	–
A6G C16G	< 1e-05	< 1e-05	–	3.38e-05 ± 8.1e-06	< 1e-05
G38C U47A C70U	< 1e-05	–	–	–	–
C10G A52U G59C	< 1e-05	< 1e-05	< 1e-05	–	< 1e-05
G38C A42G	< 1e-05	< 1e-05	< 1e-05	< 1e-05	< 1e-05
G43A C50G	< 1e-05	< 1e-05	–	< 1e-05	< 1e-05
G9C A15G C50G G59C C70G	0.00011 ± 3.6e-05	–	–	0.000264 ± 5.3e-05	–
G43U C61U	< 1e-05	< 1e-05	< 1e-05	< 1e-05	< 1e-05
A14U A15G G43C	< 1e-05	< 1e-05	< 1e-05	–	–
C19A U56G C68U	0.000112 ± 3.6e-05	–	0.00041 ± 7.6e-05	0.000435 ± 9.2e-05	–
G7A U31A	< 1e-05	< 1e-05	–	–	–
G62C U65C	< 1e-05	< 1e-05	< 1e-05	–	< 1e-05
U31A G43C U54G	< 1e-05	–	–	< 1e-05	–

Variant	self-cleavage kobs at 40 uM GlcN6P [1] [s⁻¹]	self-cleavage kobs at 640 uM GlcN6P [2] [s⁻¹]	self-cleavage kobs at 2500 uM GlcN6P [3] [s⁻¹]	self-cleavage kobs at 10000 uM GlcN6P [4] [s⁻¹]	self-cleavage kobs at 160 uM GlcN6P [5] [s⁻¹]
A53G C68U	0.000296 ± 4.8e-05	0.00399 ± 0.00064	0.00239 ± 0.00052	0.00554 ± 0.0012	0.00034 ± 7.7e-05
A12G A15C G35U C71U	< 1e-05	–	–	–	< 1e-05
U31G G44A G51U C61U C70G	< 1e-05	–	–	–	–
C11G A33C	< 1e-05	–	< 1e-05	–	< 1e-05
G37U A48U	< 1e-05	–	< 1e-05	< 1e-05	< 1e-05
A39G U45C C67U	0.000136 ± 5.9e-05	–	–	0.00434 ± 0.0011	–
C8G C50G	0.000322 ± 0.00014	0.00014 ± 3.4e-05	0.000123 ± 2.4e-05	0.000242 ± 7.8e-05	0.000106 ± 2.1e-05
G44C A48U	< 1e-05	< 1e-05	< 1e-05	< 1e-05	< 1e-05
G51C C58A C70A	< 1e-05	–	–	–	–
A15G G38C	< 1e-05	< 1e-05	< 1e-05	–	< 1e-05
U46G U57A	< 1e-05	–	–	5.59e-05 ± 7.8e-06	–
C10U U65C	< 1e-05	–	–	< 1e-05	–
A33U G40C C71A	< 1e-05	–	–	–	–
U46G G63C	< 1e-05	< 1e-05	< 1e-05	< 1e-05	< 1e-05
C16U G32U G40A C71G	< 1e-05	–	–	0.0002 ± 2.8e-05	–
C8U C50G C58G C71U	0.000808 ± 0.00019	–	–	0.000113 ± 2.1e-05	–
G60C C67G	< 1e-05	< 1e-05	–	< 1e-05	< 1e-05
G44A U65G	< 1e-05	–	–	–	< 1e-05
U31C G40U G44U U46G	< 1e-05	–	–	–	–
A6U A15G U31G G41A	< 1e-05	–	–	< 1e-05	–
G44U C70A	< 1e-05	< 1e-05	< 1e-05	< 1e-05	< 1e-05
G7U G37A	< 1e-05	–	–	< 1e-05	–
A12U G29C	0.00079 ± 0.00011	0.00446 ± 0.00073	0.00717 ± 0.0026	0.0212 ± 0.0041	0.000653 ± 0.00013
A42U G66C	< 1e-05	–	–	–	< 1e-05

Variant	self-cleavage kobs at 40 uM GlcN6P [1] [s⁻¹]	self-cleavage kobs at 640 uM GlcN6P [2] [s⁻¹]	self-cleavage kobs at 2500 uM GlcN6P [3] [s⁻¹]	self-cleavage kobs at 10000 uM GlcN6P [4] [s⁻¹]	self-cleavage kobs at 160 uM GlcN6P [5] [s⁻¹]
A14U A48C G51C U65G	< 1e-05	–	–	< 1e-05	–
G9U C11A G59A A64U	< 1e-05	–	–	–	–
C8U A12C G40A U45G G60A G66U	< 1e-05	–	–	–	–
A6G A12G G66U	< 1e-05	–	–	–	–
C8G G13U G51C A64G	< 1e-05	–	–	–	–
C11G U54C	< 1e-05	–	–	–	–
C11A A48U A52U	< 1e-05	–	–	< 1e-05	–
G7C C11G G51A	< 1e-05	–	–	< 1e-05	–
A15C C50G G62U	4.56e-05 ± 2.2e-05	6.39e-05 ± 2.8e-05	0.000111 ± 3.3e-05	–	–
A42C C61A	< 1e-05	–	< 1e-05	< 1e-05	< 1e-05
C8U A64G C68U	< 1e-05	–	–	< 1e-05	–
G35U C58U	< 1e-05	–	< 1e-05	< 1e-05	< 1e-05
G38C U56A	< 1e-05	–	< 1e-05	–	–
G29U A42U	< 1e-05	< 1e-05	–	2.15e-05 ± 1.1e-05	–
G35C C61G	< 1e-05	< 1e-05	–	–	< 1e-05
G60A C67U	< 1e-05	–	–	–	< 1e-05
A14C U31A U54A	0.000186 ± 4.9e-05	–	–	0.0192 ± 0.0058	–
G41A C67G C70U	4.65e-05 ± 2e-05	0.000188 ± 5.7e-05	0.000826 ± 0.00023	0.00166 ± 0.00038	0.000107 ± 3.4e-05
A36G A52G	< 1e-05	< 1e-05	–	< 1e-05	< 1e-05
G9U G13C	< 1e-05	< 1e-05	–	< 1e-05	< 1e-05
C10G C50G G63A C71U	6.86e-05 ± 1.9e-05	–	–	5.34e-05 ± 1.7e-05	–
